Where “and” joins values, the source holds several entries; their conditions need not be identical. Identical values can stand only once.
Details: whole UniProt chain shown
[1] = Saccharolobus solfataricus (strain ATCC 35092 / DSM 1617 / JCM 11322 / P2), pH 7, Thermal, DSC, Unknown, reversible: yes
[2] = Streptococcus phage Cp-1, pH 7, Thermal, DSC, phosphate 20 mM, reversible: no
[3] = Streptococcus phage Cp-1, pH 7, Thermal, DSC, phosphate 20 mM, transition: 3, reversible: no
[4] = Rattus norvegicus, pH 7.5, Thermal, Fluorescence, TEA 50 mM, transition: 3
[5] = Sulfolobus acidocaldarius (strain ATCC 33909 / DSM 639 / JCM 8929 / NBRC 15157 / NCIMB 11770), pH 7, Thermal, DSC, Acetate 10 mM, reversible: Yes
[6] = Sulfolobus acidocaldarius (strain ATCC 33909 / DSM 639 / JCM 8929 / NBRC 15157 / NCIMB 11770), pH 7, Thermal, DSC, Unknown, reversible: yes
[7] = Sus scrofa, pH 6.5, Thermal, DSC, Sodium phosphate 5 mM, reversible: yes

B1: DNA-binding protein 7d wild type, P39476 (protein)
chain: MATVKFKYKGEEKEVDISKIKKVWRVGKMISFTYDEGGGKTGRGAVSEKDAPKELLQMLEKQKK
- Tm (Saccharolobus solfataricus (strain ATCC 35092 / DSM 1617 / JCM 11322 / P2), pH 4.5, Thermal, NMR, Unknown): 60.9 °C
- unfolding free energy (Saccharolobus solfataricus (strain ATCC 35092 / DSM 1617 / JCM 11322 / P2), pH 6.1, 25 °C, GdnHCl, Fluorescence, MES 50 mM, NaCl 100 mM): 5.93 kcal/mol
- Tm [1]: 99 °C
- heat capacity change of unfolding [1]: 0.75 kcal/mol/K
- unfolding enthalpy (calorimetric) [1]: 65 kcal/mol

B2: Lysozyme wild type, P15057 (protein)
chain: MVKKNDLFVDVSSHNGYDITGILEQMGTTNTIIKISESTTYLNPCLSAQVEQSNPIGFYHFARFGGDVAEAEREAQFFLDNVPMQVKYLVLDYEDDPSGDAQANTNACLRFMQMIADAGYKPIYYSYKPFTHDNVDYQQILAQFPNSLWIAGYGLNDGTANFEYFPSMDGIRWWQYSSNPFDKNIVLLDDEEDDKPKTAGTWKQDSKGWWFRRNNGSFPYNKWEKIGGVWYYFDSKGYCLTSEWLKDNEKWYYLKDNGAMATGWVLVGSEWYYMDDSGAMVTGWVKYKNNWYYMTNERGNMVSNEFIKSGKGWYFMNTNGELADNPSFTKEPDGLITVA
- Tm [2]: 42.9 °C
- unfolding enthalpy (calorimetric) [2]: 109 kcal/mol
- unfolding enthalpy (van 't Hoff) [2]: 232 kcal/mol
- Tm [3]: 43.5 °C
- unfolding enthalpy (calorimetric) [3]: 143 kcal/mol
- unfolding enthalpy (van 't Hoff) [3]: 100 kcal/mol

B3: T-cell surface antigen CD2 wild type, P08921 (protein)
chain: MRCKFLGSFFLLFSLSSKGADCRDSGTVWGALGHGINLNIPNFQMTDDIDEVRWERGSTLVAEFKRKMKPFLKSGAFEILANGDLKIKNLTRDDSGTYNVTVYSTNGTRILNKALDLRILEMVSKPMIYWECSNATLTCEVLEGTDVELKLYQGKEHLRSLRQKTMSYQWTNLRAPFKCKAVNRVSQESEMEVVNCPEKGLPLYLIVGVSAGGLLLVFFGALFIFCICKRKKRNRRRKGEELEIKASRMSTVERGPKPHSTQASAPASQNPVASQAPPPPGHHLQTPGHRPLPPSHRNREHQPKKRPPPSGTQVHQQKGPPLPRPRVQPKPPCGSGDVSLPPPN
- Tm [4]: 24.9 °C
- heat capacity change of unfolding [4]: 0.5 kcal/mol/K and 0.98 kcal/mol/K
- unfolding enthalpy (van 't Hoff) [4]: 14.5 kcal/mol

B4: Malate dehydrogenase, cytoplasmic wild type, P11708 (protein)
chain: MSEPIRVLVTGAAGQIAYSLLYSIGNGSVFGKDQPIILVLLDITPMMGVLDGVLMELQDCALPLLKDVIATDKEEIAFKDLDVAILVGSMPRRDGMERKDLLKANVKIFKCQGAALDKYAKKSVKVIVVGNPANTNCLTASKSAPSIPKENFSCLTRLDHNRAKAQIALKLGVTSDDVKNVIIWGNHSSTQYPDVNHAKVKLQAKEVGVYEAVKDDSWLKGEFITTVQQRGAAVIKARKLSSAMSAAKAICDHVRDIWFGTPEGEFVSMGIISDGNSYGVPDDLLYSFPVTIKDKTWKIVEGLPINDFSREKMDLTAKELAEEKETAFEFLSSA
- unfolding free energy (Sus scrofa, pH 7.5, 25 °C, GdnHCl, Fluorescence, TEA 50 mM, MgCl2 20 mM, transition: 3): 5.9 kcal/mol and 6.4 kcal/mol

B5: DNA-binding protein 7d wild type, P13123 (protein)
chain: MVKVKFKYKGEEKEVDTSKIKKVWRVGKMVSFTYDDNGKTGRGAVSEKDAPKELLDMLARAEREKK
- Tm (Sulfolobus acidocaldarius (strain ATCC 33909 / DSM 639 / JCM 8929 / NBRC 15157 / NCIMB 11770), pH 4, Thermal, DSC, Potassium acetate 0.05 M, KCl 0.3 M, reversible: yes): 86.8 °C
- Tm (Sulfolobus acidocaldarius (strain ATCC 33909 / DSM 639 / JCM 8929 / NBRC 15157 / NCIMB 11770), pH 6, Thermal, DSC, KH2PO4 0.01 M, KCl 0.1 M, reversible: yes): 99.4 °C
- Tm [5]: 90.7 °C
- heat capacity change of unfolding [5]: 0.71 kcal/mol/K
- unfolding enthalpy (calorimetric) [5]: 58.5 kcal/mol
- Tm [6]: 90.7 °C
- heat capacity change of unfolding [6]: 0.71 kcal/mol/K
- unfolding enthalpy (calorimetric) [6]: 58.5 kcal/mol

B6: Gastricsin wild type, P30879 (protein)
chain: SVIKVPLKKLKSIRQAMKEKGLLEEFLKTHKYDPAQRYRIGDISVALEPMAYLEAAYFGEISIGTPPQNFLVL
- Tm [7]: 64.5 °C
- heat capacity change of unfolding [7]: 6.1 kcal/mol/K
- unfolding enthalpy (calorimetric) [7]: 256 kcal/mol
- unfolding enthalpy (van 't Hoff) [7]: 131 kcal/mol

B7: Subtilisin inhibitor wild type, P01006 (protein)
chain: MRNTGAGPSPSVSRPPPSAAPLSGAALAAPGDAPSALYAPSALVLTVGKGVSATTAAPERAVTLTCAPGPSGTHPAAGSACADLAAVGGDLNALTRGEDVMCPMVYDPVLLTVDGVWQGKRVSYERVFSNECEMNAHGSSVFAF
- Tm (Streptomyces albogriseolus, pH 2.45, Thermal, CD, glycine 25 mM, reversible: yes): 21.6 °C
- Tm (Streptomyces albogriseolus, pH 2.72, Thermal, CD, glycine 25 mM, reversible: yes): 31.6 °C
- Tm (Streptomyces albogriseolus, pH 2.87, Thermal, CD, glycine 25 mM, reversible: yes): 35.7 °C
- unfolding free energy (Streptomyces albogriseolus, pH 3.21, 20 °C, Thermal, CD, glycine 25 mM, reversible: yes): 4.07 kcal/mol
- Tm (Streptomyces albogriseolus, pH 3.21, Thermal, CD, glycine 25 mM, reversible: yes): 45.8 °C

Source: FireProtDB
